According to US20240066137A1, “NOVEL PROTEIN CONJUGATE, AND USE THEREOF FOR PREVENTING OR TREATING NONALCOHOLIC STEATOHEPATITIS, OBESITY AND DIABETES” (ONEGENE BIOTECHNOLOGY INC., priority 2020, published 2024):
Where two headings read alike, the source gives them in different places.

Molecular target: FGFR1/KLB (Homo sapiens, UniProt P11362+Q86Z14)
Assay: FGFR1/KLB functional assay (PathHunter)
Assay type: cell-based
Description: The cells were cultured to 70-80% full in a T-75 flask. The medium was removed and washed with 5 mL of the pre-warmed PBS. PBS was removed, and 2 mL of AssayComplete cell detachment reagent was added, and then incubated in an incubator at 37° C. and 5% CO2 for 3 minutes, and the attached cells were detached. It was mixed with 6 mL of AssayComplete cell plating 0 reagent, and the mixture was transferred to a 15 mL tube, centrifuged at 1,000 rpm for 3 minutes, and then again released in 5 mL of cell plating reagent. The number of cells was counted, and the concentration was allowed to be 500,000 cells/mL. It was transferred to a reservoir, and 40 μL per well was dispensed into a white 96-well half-area cell culture plate using a multi-channel pipette (20,000 cells/well). Only 40 μL of cell plating reagent was dispensed into the blank well. The cells were incubated in an incubator at 37° C. and 5% CO2 for 24 hours to allow to be attached.
10 μL of each of rhFGF21 (5×) and test sample (5×) prepared by 4-fold serial dilution was dispensed in duplicate and cultured at room temperature for 4 hours. 10 μL of AssayComplete cell plating 0 reagent was added to the control and blank wells. After the culture was completed, the medium was removed, and 50 μL of AssayComplete cell plating 0 reagent was added. 30 μL of Detection reagent was dispensed and reacted in a state where light was blocked at room temperature for 1 hour, and then the luminescence was measured with a plate reader.
The luminescence of the sample in the plate was measured with a Synergy Neo2 instrument.
The Delta RLU (relative luminescence unit) (ΔRLU) was calculated as follows.
ΔRLU=RLUsample−RLUblank=Signal−background luminescence
In addition, the fold induction relative to the control group was calculated as follows.
The EC50 values were obtained based on fold induction values by each concentration using GraphPad Prism 8, as follows (curve-fitting of the log (agonist) vs. normalized response−variable slope equation).
In order to test the activity levels of the native FGF21 and the FGF21 analogue at the cellular level (in vitro), the FGFR1/KLB functional assay was performed in the same manner as in Test Example 2.

Chain of FGFR1/KLB (P11362 22-822): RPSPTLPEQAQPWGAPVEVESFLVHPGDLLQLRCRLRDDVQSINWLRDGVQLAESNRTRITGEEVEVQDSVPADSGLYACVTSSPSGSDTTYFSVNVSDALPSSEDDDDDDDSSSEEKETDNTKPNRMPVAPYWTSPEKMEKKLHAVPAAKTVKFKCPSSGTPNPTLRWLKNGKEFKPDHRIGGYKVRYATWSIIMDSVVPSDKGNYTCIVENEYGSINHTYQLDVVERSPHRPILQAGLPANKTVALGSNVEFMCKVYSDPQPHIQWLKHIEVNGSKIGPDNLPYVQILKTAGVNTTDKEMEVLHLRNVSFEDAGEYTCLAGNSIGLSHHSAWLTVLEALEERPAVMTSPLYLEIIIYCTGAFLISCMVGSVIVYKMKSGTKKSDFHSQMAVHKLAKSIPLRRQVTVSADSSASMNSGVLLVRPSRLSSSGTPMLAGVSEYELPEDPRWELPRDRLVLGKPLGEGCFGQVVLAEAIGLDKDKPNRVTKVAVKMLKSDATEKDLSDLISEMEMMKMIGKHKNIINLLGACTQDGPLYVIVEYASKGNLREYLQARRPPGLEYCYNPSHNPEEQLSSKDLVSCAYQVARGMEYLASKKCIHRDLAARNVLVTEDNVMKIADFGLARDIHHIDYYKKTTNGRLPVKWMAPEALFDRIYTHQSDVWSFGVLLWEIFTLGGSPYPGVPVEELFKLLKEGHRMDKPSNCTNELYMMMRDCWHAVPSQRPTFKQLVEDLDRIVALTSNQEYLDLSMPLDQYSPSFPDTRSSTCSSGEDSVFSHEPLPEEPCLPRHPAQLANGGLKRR
Chain of FGFR1/KLB (Q86Z14 whole entry): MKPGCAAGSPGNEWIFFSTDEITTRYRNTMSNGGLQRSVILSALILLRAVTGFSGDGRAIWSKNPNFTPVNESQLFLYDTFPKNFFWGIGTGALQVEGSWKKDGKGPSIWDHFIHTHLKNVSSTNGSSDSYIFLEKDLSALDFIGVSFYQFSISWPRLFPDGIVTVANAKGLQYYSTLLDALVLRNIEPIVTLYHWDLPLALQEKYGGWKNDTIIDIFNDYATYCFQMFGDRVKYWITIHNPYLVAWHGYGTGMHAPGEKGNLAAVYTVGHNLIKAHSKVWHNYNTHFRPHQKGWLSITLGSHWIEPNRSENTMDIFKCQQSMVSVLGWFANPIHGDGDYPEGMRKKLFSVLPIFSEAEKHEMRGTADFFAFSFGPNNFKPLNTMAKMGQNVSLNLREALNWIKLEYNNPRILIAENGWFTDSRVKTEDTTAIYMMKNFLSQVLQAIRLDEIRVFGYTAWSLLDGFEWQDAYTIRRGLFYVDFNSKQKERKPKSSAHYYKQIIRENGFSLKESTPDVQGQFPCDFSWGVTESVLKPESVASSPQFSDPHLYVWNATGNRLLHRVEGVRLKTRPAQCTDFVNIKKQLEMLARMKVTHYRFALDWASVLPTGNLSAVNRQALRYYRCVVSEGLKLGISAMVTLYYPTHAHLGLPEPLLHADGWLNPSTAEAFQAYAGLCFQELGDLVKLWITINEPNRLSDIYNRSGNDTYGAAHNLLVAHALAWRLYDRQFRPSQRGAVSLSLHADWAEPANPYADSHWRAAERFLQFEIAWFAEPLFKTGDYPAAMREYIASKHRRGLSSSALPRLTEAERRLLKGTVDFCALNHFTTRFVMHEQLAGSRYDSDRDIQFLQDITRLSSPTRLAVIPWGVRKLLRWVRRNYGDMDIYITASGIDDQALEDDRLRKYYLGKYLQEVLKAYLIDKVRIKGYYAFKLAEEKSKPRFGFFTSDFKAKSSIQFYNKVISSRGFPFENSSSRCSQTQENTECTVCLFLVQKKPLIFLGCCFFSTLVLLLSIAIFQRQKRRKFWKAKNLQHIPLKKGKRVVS

EC50 (Test Example 2, mean of 2 runs, read-out: EC50, Mean): 0.82 nM
EC50 (Test Example 2, run 1, read-out: EC50, 1): 0.75 nM
EC50 (Test Example 2, run 2, read-out: EC50, 2): 0.88 nM
EC50 (Test Example 9 screening, read-out: EC50): 1.17 ± 0.56 nM
B1: rhFGF21: native FGF21, SEQ ID NO: 17 (protein)
chain: HPIPDSSPLLQFGGQVRQRYLYTDDAQQTEAHLEIREDGTVGGAADQSPESLLQLKALKPGVIQILGVKTSRFLCQRPDGALYGSLHFDPEACSFRELLLEDGYNVYQSEAHGLPLHLPGNKSPHRDPAPRGPARFLPLPGLPPALPEPPGILAPQPPDVGSSDPLSMVGPSQGRSPSYAS
modifications: FGF21 native
